We go through 2 proteins from article PMC12520249 (Nature, 2025).

This series concerns the molecule itself. The experiment in a line: cryo-EM structure.

B1: hGluD2(R710W), human GluD2 with the cerebellar ataxia mutation R710W (receptor, UniProt O43424-1 24-1007, looked up)
chain: DSIIHIGAIFDESAKKDDEVFRTAVGDLNQNEEILQTEKITFSVTFVDGNNPFQAVQEACELMNQGILALVSSIGCTSAGSLQSLADAMHIPHLFIQRSTAGTPRSGCGLTRSNRNDDYTLSVRPPVYLHDVILRVVTEYAWQKFIIFYDSEYDIRGIQEFLDKVSQQGMDVALQKVENNINKMITTLFDTMRIEELNRYRDTLRRAILVMNPATAKSFITEVVETNLVAFDCHWIIINEEINDVDVQELVRRSIGRLTIIRQTFPVPQNISQRCFRGNHRISSTLCDPKDPFAQNMEISNLYIYDTVLLLANAFHKKLEDRKWHSMASLSCIRKNSKPWQGGRSMLETIKKGGVSGLTGELEFGENGGNPNVHFEILGTNYGEELGRGVRKLGCWNPVTGLNGSLTDKKLENNMRGVVLRVVTVLEEPFVMVSENVLGKPKKYQGFSIDVLDALSNYLGFNYEIYVAPDHKYGSPQEDGTWNGLVGELVFKRADIGISALTITPDRENVVDFTTRYMDYSVGVLLRRAEKTVDMFACLAPFDLSLWACIAGTVLLVGLLVYLLNWLNPPRLQMGSMTSTTLYNSMWFVYGSFVQQGGEVPYTTLATRMMMGAWWLFALIVISSYTANLAAFLTITRIESSIQSLQDLSKQTEIPYGTVLDSAVYEHVRMKGLNPFERDSMYSQMWWMINRSNGSENNVLESQAGIQKVKYGNYAFVWDAAVLEYVAINDPDCSFYTIGNTVADRGYGIALQHGSPYRDVFSQRILELQQNGDMDILKHKWWPKNGQCDLYSSVDTKQKGGALDIKSFAGVFCILAAGIVLSCFIAMLETWWNKRKGSRVPSKEDDKEIDLEHLHRRVNSLCTDDDSPHKQFSTSSIDLTPLDIDTLPTRQALEQISDFRNTHITTTTFIPEQIQTLSRTLSAKAASGFTFGNVPEHRTGPFRHRAPNGGFFRSPIKTMSSIPYQPTPTLGLNLGNDPDRGTSI
Take B1: the binding result is listed as “binds”.

B2: hGluD2(ΔATD), human GluD2 with the amino-terminal domain deleted (receptor, UniProt O43424-1 24-1007, looked up)
chain: DSIDKKLENNMRGVVLRVVTVLEEPFVMVSENVLGKPKKYQGFSIDVLDALSNYLGFNYEIYVAPDHKYGSPQEDGTWNGLVGELVFKRADIGISALTITPDRENVVDFTTRYMDYSVGVLLRRAEKTVDMFACLAPFDLSLWACIAGTVLLVGLLVYLLNWLNPPRLQMGSMTSTTLYNSMWFVYGSFVQQGGEVPYTTLATRMMMGAWWLFALIVISSYTANLAAFLTITRIESSIQSLQDLSKQTEIPYGTVLDSAVYEHVRMKGLNPFERDSMYSQMWRMINRSNGSENNVLESQAGIQKVKYGNYAFVWDAAVLEYVAINDPDCSFYTIGNTVADRGYGIALQHGSPYRDVFSQRILELQQNGDMDILKHKWWPKNGQCDLYSSVDTKQKGGALDIKSFAGVFCILAAGIVLSCFIAMLETWWNKRKGSRVPSKEDDKEIDLEHLHRRVNSLCTDDDSPHKQFSTSSIDLTPLDIDTLPTRQALEQISDFRNTHITTTTFIPEQIQTLSRTLSAKAASGFTFGNVPEHRTGPFRHRAPNGGFFRSPIKTMSSIPYQPTPTLGLNLGNDPDRGTSI
For the protein B2, the binding result was “binds”.
